Reference: patent US20240116997A1 (BRIGHT PEAK THERAPEUTICS, published 2024)
Where two headings read alike, the source gives them in different places.

T1: IL-18 receptor (IL-18Rαβ) on cells (UniProt Q13478 19-541; O95256 20-599, limits assumed)
T1 sequence (looked up) 1: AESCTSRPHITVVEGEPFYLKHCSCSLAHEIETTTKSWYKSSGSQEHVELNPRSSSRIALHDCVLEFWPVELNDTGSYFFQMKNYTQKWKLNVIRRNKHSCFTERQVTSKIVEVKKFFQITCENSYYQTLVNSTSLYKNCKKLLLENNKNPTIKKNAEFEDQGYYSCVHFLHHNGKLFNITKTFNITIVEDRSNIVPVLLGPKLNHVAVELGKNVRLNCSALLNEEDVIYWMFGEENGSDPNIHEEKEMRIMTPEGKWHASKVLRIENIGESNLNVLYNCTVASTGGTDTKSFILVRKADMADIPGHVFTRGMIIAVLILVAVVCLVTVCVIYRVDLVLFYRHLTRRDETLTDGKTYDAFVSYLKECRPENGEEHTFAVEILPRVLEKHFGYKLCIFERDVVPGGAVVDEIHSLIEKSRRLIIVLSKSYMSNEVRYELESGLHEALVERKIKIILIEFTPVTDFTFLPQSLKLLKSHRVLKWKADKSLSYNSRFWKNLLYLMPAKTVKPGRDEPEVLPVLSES
T1 sequence (looked up) 2: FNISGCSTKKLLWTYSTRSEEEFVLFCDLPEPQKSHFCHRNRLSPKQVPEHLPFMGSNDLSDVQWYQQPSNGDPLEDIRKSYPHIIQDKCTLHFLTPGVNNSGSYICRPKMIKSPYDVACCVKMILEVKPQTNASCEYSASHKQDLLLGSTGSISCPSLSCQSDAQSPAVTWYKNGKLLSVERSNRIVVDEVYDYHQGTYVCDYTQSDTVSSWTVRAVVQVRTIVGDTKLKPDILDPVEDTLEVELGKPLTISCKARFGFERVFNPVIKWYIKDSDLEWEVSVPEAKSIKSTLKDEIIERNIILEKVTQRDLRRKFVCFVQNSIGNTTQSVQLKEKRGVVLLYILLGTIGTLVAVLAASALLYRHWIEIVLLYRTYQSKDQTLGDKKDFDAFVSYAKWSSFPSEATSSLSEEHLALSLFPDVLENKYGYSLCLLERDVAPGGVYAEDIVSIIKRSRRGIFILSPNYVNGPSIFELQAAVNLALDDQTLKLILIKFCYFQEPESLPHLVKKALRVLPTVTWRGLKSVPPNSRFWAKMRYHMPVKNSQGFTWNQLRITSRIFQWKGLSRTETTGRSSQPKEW


What was measured:
Assay in all cases: cell-based or functional assay
[1] = target: T1, IL-18 receptor (IL-18Rαβ) on cells
[2] = target: T1, IL-18 receptor (IL-18Rαβ) on cells; remark: listed apart in the source
[3] = target: T1, IL-18 receptor (IL-18Rαβ) on cells; remark: listed apart in the source
[4] = target: T1, IL-18 receptor (IL-18Rαβ) on cells; remark: listed apart in the source
[5] = target: T1, IL-18 receptor (IL-18Rαβ) on cells; remark: listed apart in the source

Row | Fold potency loss vs C086 [1] [fold] | HEK-blue EC50 [1] [pM] | EC50 (read off the curve), HEK-Blue IL18R reporter [2] [pM] | EC50 (read off the curve), HEK-Blue IL18R reporter [3] [pM] | EC50 (nM), IFNγ induction, NK-92 cells [4] [nM] | EC50 (pM), HEK-Blue IL-18R reporter assay [5] [pM] | Binder
1 | 26 | 1090 | ~1 |  |  |  | C172 (C086-LinkerX-IL-18Rα D3-His6; SEQ ID NO: 73) (ligand) YFGKLKSKLSIIRNLNDQVLFIDQGNRPLFEDMTDSDARDNAPRTIFIISMYADSQPRGMAVAISVKCEKISTLSAENKIISFKEMNPPDNIKDTKSDIIFFQRSVPGHDNKMQFESSSYEGYFLAAEKERDLFKLILKKEDELGDRSIMFTVQNESGGPGPAGMKGLPGSNIVPVLLGPKLNHVAVELGKNVRLNCSALLNEEDVIYWMFGEENGSDPNIHEEKEMRIMTPEGKWHASKVLRIENIGESNLNVLYNCTVASTGGTDTKSFILVRKADHHHHHH
2 | 10 | 430 | ~0.4 |  |  |  | C189 (C086-LinkerX-IL-18Rα D3 without glycosylation sites-His6; SEQ ID NO: 75) (ligand) YFGKLKSKLSIIRNLNDQVLFIDQGNRPLFEDMTDSDARDNAPRTIFIISMYADSQPRGMAVAISVKCEKISTLSAENKIISFKEMNPPDNIKDTKSDIIFFQRSVPGHDNKMQFESSSYEGYFLAAEKERDLFKLILKKEDELGDRSIMFTVQNESGGPGPAGMKGLPGSNIVPVLLGPKLNHVAVELGKNVRLDCSALLNEEDVIYWMFGEEDGSDPNIHEEKEMRIMTPEGKWHASKVLRIENIGESNLNVLYDCTVASTGGTDTKSFILVRKADHHHHHH
3 |  | 40 | ~0.04 | ~0.04 | 0.026 | 0.034 | C086 (SEQ ID NO: 30; E6K, V11I, C38A, K53A, T63A, C76A, C127A) (ligand) YFGKLKSKLSIIRNLNDQVLFIDQGNRPLFEDMTDSDARDNAPRTIFIISMYADSQPRGMAVAISVKCEKISTLSAENKIISFKEMNPPDNIKDTKSDIIFFQRSVPGHDNKMQFESSSYEGYFLAAEKERDLFKLILKKEDELGDRSIMFTVQNED
4 | 48 | 2020 | ~2 |  |  |  | C191 (C086-PLGLAG linker-IL-18Rα D3-His6; SEQ ID NO: 76) (ligand) YFGKLKSKLSIIRNLNDQVLFIDQGNRPLFEDMTDSDARDNAPRTIFIISMYADSQPRGMAVAISVKCEKISTLSAENKIISFKEMNPPDNIKDTKSDIIFFQRSVPGHDNKMQFESSSYEGYFLAAEKERDLFKLILKKEDELGDRSIMFTVQNESGGPLGLAGGSNIVPVLLGPKLNHVAVELGKNVRLNCSALLNEEDVIYWMFGEENGSDPNIHEEKEMRIMTPEGKWHASKVLRIENIGESNLNVLYNCTVASTGGTDTKSFILVRKADHHHHHH
